Reference: publication PMC8298264, “Function of cofactor Akirin2 in the regulation of gene expression in model human neutrophil-like HL60 cells” (Bioscience Reports, 2021)

tested on: human HL60 cells; test: SWATH-MS proteomics, differential protein representation, akirin2 KO vs WT HL60 cells; assay type: cell-based; conditions: KO vs WT; akirin2 KO vs WT HL60 cells; sheet "Under-represented in KO"
Summary of the method: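 First, proteins from wild-type and knockout cells are digested with trypsin by FASP. Next, pooled IDA runs generate a reference ion library. Then six samples of 5 µg each are acquired by data-independent SWATH, and protein areas are normalized to the summed area of all detected proteins.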

Molecule | Fold Change | Log (Fold Change)
sp¦Q9UL25¦RAB21_HUMAN (protein, UniProt Q9UL25 2-222, looked up) Ras-related protein Rab-21: AAAGGGGGGAAAAGRAYSFKVVLLGEGCVGKTSLVLRYCENKFNDKHITTLQASFLTKKLNIGGKRVNLAIWDTAGQERFHALGPIYYRDSNGAILVYDITDEDSFQKVKNWVKELRKMLGNEICLCIVGNKIDLEKERHVSIQEAESYAESVGAKHYHTSAKQNKGIEELFLDLCKRMIETAQVDERAKGNGSSQPGTARRGVQIIDDEPQAQTSGGGCC | 0.6117 | -0.2135
sp¦P04899¦GNAI2_HUMAN (protein, UniProt P04899 2-355, looked up) Guanine nucleotide-binding …: GCTVSAEDKAAAERSKMIDKNLREDGEKAAREVKLLLLGAGESGKSTIVKQMKIIHEDGYSEEECRQYRAVVYSNTIQSIMAIVKAMGNLQIDFADPSRADDARQLFALSCTAEEQGVLPDDLSGVIRRLWADHGVQACFGRSREYQLNDSAAYYLNDLERIAQSDYIPTQQDVLRTRVKTTGIVETHFTFKDLHFKMFDVGGQRSERKKWIHCFEGVTAIIFCVALSAYDLVLAEDEEMNRMHESMKLFDSICNNKWFTDTSIILFLNKKDLFEEKITHSPLTICFPEYTGANKYDEAASYIQSKFEDLNKRKDTKEIYTHFTCATDTKNVQFVFDAVTDVIIKNNLKDCGLF | 0.61 | -0.2146
sp¦O43592¦XPOT_HUMAN (protein, UniProt O43592 1-962, looked up) Exportin-T: MDEQALLGLNPNADSDFRQRALAYFEQLKISPDAWQVCAEALAQRTYSDDHVKFFCFQVLEHQVKYKYSELTTVQQQLIRETLISWLQAQMLNPQPEKTFIRNKAAQVFALLFVTEYLTKWPKFFFDILSVVDLNPRGVDLYLRILMAIDSELVDRDVVHTSEEARRNTLIKDTMREQCIPNLVESWYQILQNYQFTNSEVTCQCLEVVGAYVSWIDLSLIANDRFINMLLGHMSIEVLREEACDCLFEVVNKGMDPVDKMKLVESLCQVLQSAGFFSIDQEEDVDFLARFSKLVNGMGQSLIVSWSKLIKNGDIKNAQEALQAIETKVALMLQLLIHEDDDISSNIIGFCYDYLHILKQLTVLSDQQKANVEAIMLAVMKKLTYDEEYNFENEGEDEAMFVEYRKQLKLLLDRLAQVSPELLLASVRRVFSSTLQNWQTTRFMEVEVAIRLLYMLAEALPVSHGAHFSGDVSKASALQDMMRTLVTSGVSSYQHTSVTLEFFETVVRYEKFFTVEPQHIPCVLMAFLDHRGLRHSSAKVRSRTAYLFSRFVKSLNKQMNPFIEDILNRIQDLLELSPPENGHQSLLSSDDQLFIYETAGVLIVNSEYPAERKQALMRNLLTPLMEKFKILLEKLMLAQDEERQASLADCLNHAVGFASRTSKAFSNKQTVKQCGCSEVYLDCLQTFLPALSCPLQKDILRSGVRTFLHRMIICLEEEVLPFIPSASEHMLKDCEAKDLQEFIPLINQITAKFKIQVSPFLQQMFMPLLHAIFEVLLRPAEENDQSAALEKQMLRRSYFAFLQTVTGSGMSEVIANQGAENVERVLVTVIQGAVEYPDPIAQKTCFIILSKLVELWGGKDGPVGFADFVYKHIVPACFLAPLKQTFDLADAQTVLALSECAVTLKTIHLKRGPECVQYLQQEYLPSLQVAPEIIQEFCQALQQPDAKVFKNYLKVFFQRAKP | 0.6107 | -0.2142
sp¦Q15397¦PUM3_HUMAN (protein, UniProt Q15397 1-648, looked up) Pumilio homolog 3: MEVKGKKQFTGKSTKTAQEKNRFHKNSDSGSSKTFPTRKVAKEGGPKVTSRNFEKSITKLGKKGVKQFKNKQQGDKSPKNKFQPANKFNKKRKFQPDGRSDESAAKKPKWDDFKKKKKELKQSRQLSDKTNYDIVVRAKQMWEILRRKDCDKEKRVKLMSDLQKLIQGKIKTIAFAHDSTRVIQCYIQYGNEEQRKQAFEELRDDLVELSKAKYSRNIVKKFLMYGSKPQIAEIIRSFKGHVRKMLRHAEASAIVEYAYNDKAILEQRNMLTEELYGNTFQLYKSADHRTLDKVLEVQPEKLELIMDEMKQILTPMAQKEAVIKHSLVHKVFLDFFTYAPPKLRSEMIEAIREAVVYLAHTHDGARVAMHCLWHGTPKDRKVIVKTMKTYVEKVANGQYSHLVLLAAFDCIDDTKLVKQIIISEIISSLPSIVNDKYGRKVLLYLLSPRDPAHTVREIIEVLQKGDGNAHSKKDTEVRRRELLESISPALLSYLQEHAQEVVLDKSACVLVSDILGSATGDVQPTMNAIASLAATGLHPGGKDGELHIAEHPAGHLVLKWLIEQDKKMKENGREGCFAKTLVEHVGMKNLKSWASVNRGAIILSSLLQSCDLEVANKVKAALKSLIPTLEKTKSTSKGIEILLEKLST | 0.6182 | -0.2089
sp¦Q8N5K1¦CISD2_HUMAN (protein, UniProt Q8N5K1 2-135, looked up) CDGSH iron-sulfur …: VLESVARIVKVQLPAYLKRLPVPESITGFARLTVSEWLRLLPFLGVLALLGYLAVRPFLPKKKQQKDSLINLKIQKENPKVVNEINIEDLCLTKAAYCRCWRSKTFPACDGSHNKHNELTGDNVGPLILKKKEV | 0.6126 | -0.2128
sp¦Q13464¦ROCK1_HUMAN (protein, UniProt Q13464 2-1354, looked up) Rho-associated protein kinase …: STGDSFETRFEKMDNLLRDPKSEVNSDCLLDGLDALVYDLDFPALRKNKNIDNFLSRYKDTINKIRDLRMKAEDYEVVKVIGRGAFGEVQLVRHKSTRKVYAMKLLSKFEMIKRSDSAFFWEERDIMAFANSPWVVQLFYAFQDDRYLYMVMEYMPGGDLVNLMSNYDVPEKWARFYTAEVVLALDAIHSMGFIHRDVKPDNMLLDKSGHLKLADFGTCMKMNKEGMVRCDTAVGTPDYISPEVLKSQGGDGYYGRECDWWSVGVFLYEMLVGDTPFYADSLVGTYSKIMNHKNSLTFPDDNDISKEAKNLICAFLTDREVRLGRNGVEEIKRHLFFKNDQWAWETLRDTVAPVVPDLSSDIDTSNFDDLEEDKGEEETFPIPKAFVGNQLPFVGFTYYSNRRYLSSANPNDNRTSSNADKSLQESLQKTIYKLEEQLHNEMQLKDEMEQKCRTSNIKLDKIMKELDEEGNQRRNLESTVSQIEKEKMLLQHRINEYQRKAEQENEKRRNVENEVSTLKDQLEDLKKVSQNSQLANEKLSQLQKQLEEANDLLRTESDTAVRLRKSHTEMSKSISQLESLNRELQERNRILENSKSQTDKDYYQLQAILEAERRDRGHDSEMIGDLQARITSLQEEVKHLKHNLEKVEGERKEAQDMLNHSEKEKNNLEIDLNYKLKSLQQRLEQEVNEHKVTKARLTDKHQSIEEAKSVAMCEMEKKLKEEREAREKAENRVVQIEKQCSMLDVDLKQSQQKLEHLTGNKERMEDEVKNLTLQLEQESNKRLLLQNELKTQAFEADNLKGLEKQMKQEINTLLEAKRLLEFELAQLTKQYRGNEGQMRELQDQLEAEQYFSTLYKTQVKELKEEIEEKNRENLKKIQELQNEKETLATQLDLAETKAESEQLARGLLEEQYFELTQESKKAASRNRQEITDKDHTVSRLEEANSMLTKDIEILRRENEELTEKMKKAEEEYKLEKEEEISNLKAAFEKNINTERTLKTQAVNKLAEIMNRKDFKIDRKKANTQDLRKKEKENRKLQLELNQEREKFNQMVVKHQKELNDMQAQLVEECAHRNELQMQLASKESDIEQLRAKLLDLSDSTSVASFPSADETDGNLPESRIEGWLSVPNRGNIKRYGWKKQYVVVSSKKILFYNDEQDKEQSNPSMVLDIDKLFHVRPVTQGDVYRAETEEIPKIFQILYANEGECRKDVEMEPVQQAEKTNFQNHKGHEFIPTLYHFPANCDACAKPLWHVFKPPPALECRRCHVKCHRDHLDKKEDLICPCKVSYDVTSARDMLLLACSQDEQKKWVTHLVKKIPKNPPSGFVRASPRTLSTRSTANQSFRKVVKNTSGKTS | 0.6099 | -0.2148

same assay, conditions: akirin2 KO vs WT HL60 cells; sheet "Under-represented in KO"

Molecule | Fold Change | Log (Fold Change)
sp¦Q14683¦SMC1A_HUMAN (protein, UniProt Q14683 1-1233, looked up) Structural maintenance of …: MGFLKLIEIENFKSYKGRQIIGPFQRFTAIIGPNGSGKSNLMDAISFVLGEKTSNLRVKTLRDLIHGAPVGKPAANRAFVSMVYSEEGAEDRTFARVIVGGSSEYKINNKVVQLHEYSEELEKLGILIKARNFLVFQGAVESIAMKNPKERTALFEEISRSGELAQEYDKRKKEMVKAEEDTQFNYHRKKNIAAERKEAKQEKEEADRYQRLKDEVVRAQVQLQLFKLYHNEVEIEKLNKELASKNKEIEKDKKRMDKVEDELKEKKKELGKMMREQQQIEKEIKEKDSELNQKRPQYIKAKENTSHKIKKLEAAKKSLQNAQKHYKKRKGDMDELEKEMLSVEKARQEFEERMEEESQSQGRDLTLEENQVKKYHRLKEEASKRAATLAQELEKFNRDQKADQDRLDLEERKKVETEAKIKQKLREIEENQKRIEKLEEYITTSKQSLEEQKKLEGELTEEVEMAKRRIDEINKELNQVMEQLGDARIDRQESSRQQRKAEIMESIKRLYPGSVYGRLIDLCQPTQKKYQIAVTKVLGKNMDAIIVDSEKTGRDCIQYIKEQRGEPETFLPLDYLEVKPTDEKLRELKGAKLVIDVIRYEPPHIKKALQYACGNALVCDNVEDARRIAFGGHQRHKTVALDGTLFQKSGVISGGASDLKAKARRWDEKAVDKLKEKKERLTEELKEQMKAKRKEAELRQVQSQAHGLQMRLKYSQSDLEQTKTRHLALNLQEKSKLESELANFGPRINDIKRIIQSREREMKDLKEKMNQVEDEVFEEFCREIGVRNIREFEEEKVKRQNEIAKKRLEFENQKTRLGIQLDFEKNQLKEDQDKVHMWEQTVKKDENEIEKLKKEEQRHMKIIDETMAQLQDLKNQHLAKKSEVNDKNHEMEEIRKKLGGANKEMTHLQKEVTAIETKLEQKRSDRHNLLQACKMQDIKLPLSKGTMDDISQEEGSSQGEDSVSGSQRISSIYAREALIEIDYGDLCEDLKDAQAEEEIKQEMNTLQQKLNEQQSVLQRIAAPNMKAMEKLESVRDKFQETSDEFEAARKRAKKAKQAFEQIKKERFDRFNACFESVATNIDEIYKALSRNSSAQAFLGPENPEEPYLDGINYNCVAPGKRFRPMDNLSGGEKTVAALALLFAIHSYKPAPFFVLDEIDAALDNTNIGKVANYIKEQSTCNFQAIVISLKEEFYTKAESLIGVYPEQGDCVISKVLTFDLTKYPDANPNPNEQ | 0.2754 | -0.5601
